B1: IR-094 antibody (antibody, mouse IgG2b, V domains shown)
VH: EVKLEESGGGLVQPGGSMKLSCVASGFTFSNYWMNWVRQSPEKGLEWVAEIRLKSNNYATHYAESVKGRFTISRDDSKSSVYLQMNNLRAEDTGIYYCTRRGPSGYDRAWFAYWGQGTLVTVSA
VL: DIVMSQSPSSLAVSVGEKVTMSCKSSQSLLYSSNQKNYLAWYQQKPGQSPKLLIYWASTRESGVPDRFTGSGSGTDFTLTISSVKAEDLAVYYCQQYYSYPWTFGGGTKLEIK
notes: mouse IgG2b
B2: IR-081 antibody (antibody, mouse IgG2b, V domains shown)
VH: DVQLVESGGGLVQPGGSRKLSCAASGFTFSSFGMHWVRQAPEKGLEWVAYISSGSSTIYYADTVKGRFTISRDNPKNTLFLQMTSLRSEDTAMYYCARRWGEGAMDYWGQGTSVTVSS
VL: DVLMTQTPLSLPVSLGDQASISCRSSQSIVHSNGNTYLEWYLQKPGQSPKLLIYKVSNRFSGVPDRFSGSGSGTDFTLKISRVEAEDLGVYYCFQGSHVPPTFGGGTKLEIK
notes: mouse IgG2b
B3: IR-098 antibody (antibody, mouse IgG2b, V domains shown)
VH: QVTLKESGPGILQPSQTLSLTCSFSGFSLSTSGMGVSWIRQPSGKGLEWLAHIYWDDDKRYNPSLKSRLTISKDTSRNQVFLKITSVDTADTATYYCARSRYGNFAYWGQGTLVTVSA
VL: B2 VL with P101L, G105A, I111L
notes: mouse IgG2b
B4: IR-107 antibody (antibody, mouse IgG2b, V domains shown)
VH: DVQLVESGGGLVQPGGSRKLSCAASGFTFSSFGMHWVRQAPEKGLEWVAYISSGSSTIYYADTVKGRFTISRDNPKNTLFLQMTSLRSEDTAMYYCARYGYAMDYWGQGTSVTVSS
VL: B2 VL
notes: mouse IgG2b
B5: IR-108 antibody (antibody, mouse IgG2a, V domains shown)
VH: QVTLKESGPGILKPSQTLSLTCSFSGFSLSTSGMGVGWIRQPSGKGLEWLAHIWWDDDKYYNPSLKSQLTISKDTSRNQVFLKITSVDTADTATYYCARRGLRRGDYFDYWGQGTTLTVSS
VL: B2 VL with P101L, G105A, I111L
notes: mouse IgG2a
B6: IR-083 antibody (antibody, mouse IgG2b, V domains shown)
VH: B2 VH with S31R, H35Y, T63I, W100G, G101Y, E102Y, G103E
VL: B2 VL with E86D
notes: mouse IgG2b
B7: IR-110 antibody (antibody, mouse IgG2b, V domains shown)
VH: B4 VH with R98S, Y101N, A102Y, M103G, D104A, S111L, S116A
VL: B2 VL
notes: mouse IgG2b
B8: IR-079 antibody (antibody, mouse IgG2b, V domains shown)
VH: DVQLVESGGGLVQPGGSRKLSCAASGFTFSSFGMHWVRQAPEKGLEWVAYISSGSSTIYYADTVKGRFTISRDNPKNTLFLQMTSLRSEDTAMYYCARYGTLYYYAMDYWGQGTSVTVSS
VL: B2 VL
notes: mouse IgG2b
B9: IR-152 antibody (antibody, mouse IgG2b, V domains shown)
VH: B2 VH with R99G, W100G, G101H, E102V
VL: B2 VL with L3V, I29L, E39H, Y92F, F94S, G96S, S97T, P101W
notes: mouse IgG2b
B10: IR-097 antibody (antibody, mouse IgG2b, V domains shown)
VH: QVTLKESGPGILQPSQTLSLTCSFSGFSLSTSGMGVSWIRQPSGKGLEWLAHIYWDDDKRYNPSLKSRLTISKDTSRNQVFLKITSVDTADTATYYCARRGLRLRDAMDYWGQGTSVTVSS
VL: B2 VL with P101L, G105A, I111L
notes: mouse IgG2b

Consider ten molecules from US20120177664A1 (IMMUNAS PHARMA, published 2012).

One may read the Kd as the constant that tells how readily two partners part at equilibrium. The koff is the rate constant with which the complex falls apart. A higher koff goes with fast dissociation. By kon is commonly meant a measure of how fast the partners come together. Lower therefore signals slower complex formation.

Numbering of substitutions follows the chain as printed.

For this experiment, the target named is T1, A beta oligomer (synthetic A beta1-40, HCl form, 0.1 mg/ml in PBS, incubated at 37 degrees C for one hour) (UniProt P05067 672-711).
T1 construct: domain: A beta1-40; non-fibrous multimer of the peptide; also called A beta 1-40 oligomer
Description: SPR (Biacore 3000). The protocol:
The analysis was carried out by Surface Plasmon Resonance (SPR) using Biacore 3000 (GE Healthcare Sciences).
(In SPR one partner is held on a chip, and binding of the other changes the refractive index at the surface.)
With B1, the Kd is 59.4 nM, the dissociation rate constant (koff) was found to be 0.0215 s⁻¹ and the kon turned out to be 362000 M⁻¹ s⁻¹.
Taken in the same sequence, the figures for B2 were 1250 nM, 0.421 s⁻¹ and 336000 M⁻¹ s⁻¹.
Regarding B3, the Kd came out at 36.3 nM, the koff stood at 0.0138 s⁻¹ and the kon was found to be 380000 M⁻¹ s⁻¹.
In turn, B4 showed a Kd of 339 nM, a koff of 0.1 s⁻¹ and a kon of 295000 M⁻¹ s⁻¹.
Taken in the same sequence, the figures for B5 were 11.8 nM, 0.00296 s⁻¹ and 250000 M⁻¹ s⁻¹.
The molecule B6 displayed a Kd of 699 nM, a koff of 0.431 s⁻¹ and a kon of 617000 M⁻¹ s⁻¹.
B7 gave a Kd of 177 nM, a koff of 0.0719 s⁻¹ and a kon of 407000 M⁻¹ s⁻¹.
In turn, B8 had a Kd of 1050 nM, a koff of 0.297 s⁻¹ and a kon of 282000 M⁻¹ s⁻¹.
Consider B9, for which the dissociation constant Kd is 58.8 nM, the koff was 0.00227 s⁻¹ and the kon was 38600 M⁻¹ s⁻¹.
Taken in the same sequence, the figures for B10 were 15.7 nM, 0.00303 s⁻¹ and 193000 M⁻¹ s⁻¹.
